System: Patients with Type 2 Diabetes Insufficiently Controlled with Insulin Glargine with or without Metformin
Assay: Treatment-emergent adverse events, 26-week study
Format: in vivo, human
Source text: FIG. 6—Graphical study design. ^1 Insulin glargine should be injected subcutaneously once daily at dinner or breakfast time (according to patient's/investigators' preference). […] Meal used for insulin glulisine dosing should remain the same throughout the 26-week treatment period. ^4 Injection of insulin glulisine prior to breakfast, lunch and dinner.
Co-primary endpoints at 26 weeks were (1) non-inferiority (95% CI upper bound <0.4%) in HbA1c reduction with LIXI vs GLU-1 and (2) for LIXI vs GLU-3, either non-inferiority in HbA1c reduction (2a) OR superiority (one-sided α≤0.025) in body weight change (2b). FPG, PPG, IG dose, composite outcomes, AEs, and hypoglycemia were assessed.

[1] = Safety population, PT ≥ 3% table

Insulin Glulisine QD: insulin glulisine once daily, added to insulin glargine ± metformin (comparator arm)
5 (2) n (%): Gastrointestinal AEs: Nausea (in vivo) | Gastrointestinal AEs: Vomiting (in vivo)
2 (0.7%) n (%): Patients with treatment emergent SAE: Accidental overdose (Safety population) | Patients with any TEAE leading to permanent treatment discontinuation (in vivo) | Patients with treatment emergent SAE: Hypoglycaemic unconsciousness (in vivo) | Patients with treatment emergent SAE: Metabolism and nutrition disorders (SOC) (in vivo)
4 (1.3%) n (%): Patients with treatment emergent SAE: Injury, poisoning and procedural complications (SOC) (in vivo)
5 (1.7%) n (%): Patients with TEAE: Nausea (in vivo) | Patients with TEAE: Upper respiratory tract infection (in vivo) | Patients with TEAE: Vomiting (in vivo)
11 (3.7%) n (%): Patients with any treatment emergent SAE (in vivo) | Patients with treatment emergent SAE: Any class (in vivo)
70 (23.3%) n (%): Patients with TEAE: Infections and infestations (SOC) [1]
140 (46.5%) n (%): Patients with TEAE: Hypoglycaemia [1]
67 (22.3%) n (%): Patients with TEAE: Blood glucose decreased (in vivo)
0 n (%): Patients with any TEAE leading to death (Safety population) | Adjudicated by PSAC: Acute on chronic pancreatitis (in vivo) | Adjudicated by PSAC: Acute pancreatitis (in vivo) | Adjudicated by PSAC: Chronic pancreatitis (in vivo) | Adjudicated by PSAC: Unknown pancreatitis (in vivo) | Patients with TEAE on the specific adverse event form for increased calcitonin (>=20 ng/L): Any (in vivo) | Patients with TEAE on the specific adverse event form for increased calcitonin (>=20 ng/L): Blood calcitonin increased (in vivo) | Patients with events adjudicated as allergic reaction by ARAC: All, Any category, Any event (in vivo) | Patients with events adjudicated as allergic reaction by ARAC: OTHER ALLERGIC REACTION, Rhinitis allergic (in vivo) | Patients with events adjudicated as allergic reaction by ARAC: Possibly Related to IMP, Any event (in vivo) | Patients with events adjudicated as allergic reaction by ARAC: URTICARIA (HIVES), Urticaria (in vivo) | Patients with treatment emergent SAE: Abdominal pain (in vivo) | Patients with treatment emergent SAE: Angina pectoris (in vivo) | Patients with treatment emergent SAE: Atrioventricular block complete (in vivo) | Patients with treatment emergent SAE: Basal cell carcinoma (in vivo) | Patients with treatment emergent SAE: Cardiac failure chronic (in vivo) | Patients with treatment emergent SAE: Cardiac failure congestive (in vivo) | Patients with treatment emergent SAE: Cerebrovascular accident (in vivo) | Patients with treatment emergent SAE: Decreased appetite (in vivo) | Patients with treatment emergent SAE: Diabetic bullosis (in vivo) | Patients with treatment emergent SAE: Epigastric discomfort (in vivo) | Patients with treatment emergent SAE: Erysipelas (in vivo) | Patients with treatment emergent SAE: Gastric ulcer haemorrhage (in vivo) | Patients with treatment emergent SAE: Gastrointestinal disorders (SOC) (in vivo) | Patients with treatment emergent SAE: Hepatic mass (in vivo) | Patients with treatment emergent SAE: Hepatobiliary disorders (SOC) (in vivo) | Patients with treatment emergent SAE: Hypertension (in vivo) | Patients with treatment emergent SAE: Invasive ductal breast carcinoma (in vivo) | Patients with treatment emergent SAE: Myocardial ischaemia (in vivo) | Patients with treatment emergent SAE: Neoplasm malignant (in vivo) | Patients with treatment emergent SAE: Neoplasms benign, malignant and unspecified (incl cysts and polyps) (SOC) (in vivo) | Patients with treatment emergent SAE: Pancreatic carcinoma metastatic (in vivo)
10 (3.3%) n (%): Patients with TEAE: Diarrhoea (in vivo)
21 (7.0%) n (%): Patients with TEAE: Nasopharyngitis (in vivo)
13 (4.3%) n (%): Patients with TEAE: Accidental overdose [1]
26 (8.6%) n (%): Patients with TEAE: Gastrointestinal disorders (SOC) (in vivo)
22 (7.3%) n (%): Patients with TEAE: Nervous system disorders (SOC) (in vivo)
20 (6.6%) n (%): Patients with TEAE: Injury, poisoning and procedural complications (SOC) [1]
76 (25.2%) n (%): Patients with TEAE: Investigations (SOC) [1]
143 (47.5%) n (%): Patients with TEAE: Metabolism and nutrition disorders (SOC) [1]
10 (3) n (%): Gastrointestinal AEs: Diarrhea (in vivo)
222 (73.8%) n (%): Patients with TEAE: Any class (in vivo) | Patients with any TEAE (in vivo)
8 (2.7%) n (%): Patients with TEAE: Headache [1] | Patients with TEAE: Influenza [1]
1 (0.3%) n (%): Patients with treatment emergent SAE: Angina unstable (in vivo) | Patients with treatment emergent SAE: Ankle fracture (in vivo) | Patients with treatment emergent SAE: Atrial fibrillation (in vivo) | Patients with treatment emergent SAE: Cellulitis (in vivo) | Patients with treatment emergent SAE: Dehydration (in vivo) | Patients with treatment emergent SAE: Hypoglycaemia (in vivo) | Patients with treatment emergent SAE: Incisional hernia (in vivo) | Patients with treatment emergent SAE: Infections and infestations (SOC) (in vivo) | Patients with treatment emergent SAE: Myocardial infarction (in vivo) | Patients with treatment emergent SAE: Neuritis cranial (in vivo)
3 (1.0%) n (%): Patients with treatment emergent SAE: Cardiac disorders (SOC) (in vivo) | Patients with treatment emergent SAE: Nervous system disorders (SOC) (in vivo)
